Data on 1 molecule can be found in patent publication US20180371492A1 (WAYNE STATE UNIVERSITY, published 2018).

Usually Kd stands for a measure of binding affinity in units of concentration.

For this test, the target named is T1, purified androgen receptor (AR) (human, UniProt P10275 1-920, limits assumed).
T1 construct: also called purified AR
T1 sequence: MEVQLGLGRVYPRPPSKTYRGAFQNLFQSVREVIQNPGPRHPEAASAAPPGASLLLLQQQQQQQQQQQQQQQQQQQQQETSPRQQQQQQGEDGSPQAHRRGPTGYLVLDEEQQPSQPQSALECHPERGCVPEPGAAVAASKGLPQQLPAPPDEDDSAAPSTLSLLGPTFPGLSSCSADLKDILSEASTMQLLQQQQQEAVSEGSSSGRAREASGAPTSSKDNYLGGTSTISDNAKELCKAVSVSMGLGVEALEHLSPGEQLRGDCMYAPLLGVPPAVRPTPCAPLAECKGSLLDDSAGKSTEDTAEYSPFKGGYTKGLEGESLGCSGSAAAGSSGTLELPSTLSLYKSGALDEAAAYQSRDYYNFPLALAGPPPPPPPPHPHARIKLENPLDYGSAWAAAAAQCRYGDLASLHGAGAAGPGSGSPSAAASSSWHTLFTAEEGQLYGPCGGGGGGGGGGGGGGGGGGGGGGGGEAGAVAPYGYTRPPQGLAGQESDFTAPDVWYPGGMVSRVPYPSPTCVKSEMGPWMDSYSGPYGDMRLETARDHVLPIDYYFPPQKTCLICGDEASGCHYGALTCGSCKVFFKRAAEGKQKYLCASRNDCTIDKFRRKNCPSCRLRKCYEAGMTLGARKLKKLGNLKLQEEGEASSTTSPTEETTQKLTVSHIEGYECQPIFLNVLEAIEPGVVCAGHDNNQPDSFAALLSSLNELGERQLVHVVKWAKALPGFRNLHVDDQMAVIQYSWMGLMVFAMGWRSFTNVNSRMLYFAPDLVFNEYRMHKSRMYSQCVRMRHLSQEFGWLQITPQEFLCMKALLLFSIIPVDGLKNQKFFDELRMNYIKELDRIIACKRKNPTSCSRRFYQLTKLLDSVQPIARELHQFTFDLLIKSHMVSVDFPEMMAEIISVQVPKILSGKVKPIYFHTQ
Briefly: SPR, purified proteins. (SPR reads the build-up and loss of mass on a sensor chip optically.)

B1: ELK1 (ETS transcription factor (ELK1), transcript variant 1) (other)
chain: MDPSVTLWQFLLQLLREQGNGHIISWTSRDGGEFKLVDAEEVARLWGLRKNKTNMNYDKLSRALRYYYDKNIIRKVSGQKFVYKFVSYPEVAGCSTEDCPPQPEVSVTSTMPNVAPAAIHAAPGDTVSGKPGTPKGAGMAGPGGLARSSRNEYMRSGLYSTFTIQSLQPQPPPHPRPAVVLPNAAPAGAAAPPSGSRSTSPSPLEACLEAEEAGLPLQVILTPPEAPNLKSEELNVEPGLGRALPPEVKVEGPKEELEVAGERGFVPETTKAEPEVPPQEGVPARLPAVVMDTAGQAGGHAASSPEISQPQKGRKPRDLELPLSPSLLGGPGPERTPGSGSGSGLQAPGPALTPSLLPTHTLTPVLLTPSSLPPSIHFWSTLSPIAPRSPAKLSFQFPSSGSAQVHIPSISVDGLSTPVVLSPGPQKP
notes: also called purified ELK1; ELK1 polypeptide
In the case of B1, the equilibrium dissociation constant (Kd) turned out to be 19 nM.
